From US20050042209A1, “MUC1 extracellular domain and cancer treatment compositions and methods derived therefrom” (priority 2000, published 2005)

Tested on: HCT116 cells
Experiment: Apoptosis (sub-G1 DNA, TUNEL) in HCT116 transfectants
Assay type: cell-based, human
Details: FIG. 19
Method: Methods. Apoptotic cells were quantified by analysis of sub-G1 DNA and TUNEL staining. To assess sub-G1 DNA content, cells were harvested, washed with PBS, fixed with 80% ethanol, and incubated in PBS containing 20 ng/ml RNase (Roche) for 60 min at 37° C. Cells were then stained with […] propidium iodide (Sigma) for 30 min at room temperature in the dark. DNA content was analyzed by flow cytometry (EPICS XL-MCL, Coulter Corp.). Apoptotic cells with DNA fragmentation were detected by staining with the In Situ cell death detection kit (TUNEL; Roche Applied Science) and visualized by confocal microscopy (ZEISS LSM510). After staining, cells were analyzed by flow cytometry. Other experimental procedures and methods were as described in Example 15.
Results. To determine if MUC1 affects the induction of apoptosis by CDDP, cells were analyzed for sub-G1 DNA content. […] Stimulation of cell surface death receptors with TNF-α or the TNF-related apoptosis inducing factor TRAIL is associated with activation of the extrinsic apoptotic pathway. To determine if MUC1 affects death receptor-induced apoptosis, HCT116 cells were treated with TNF-α.

B1: TRAIL: TNF-related apoptosis inducing factor TRAIL, rhTRAIL (Calbiochem-Novabiochem) (protein, UniProt P50591 1-281, looked up)
Tumor necrosis factor ligand …: MAMMEVQGGPSLGQTCVLIVIFTVLLQSLCVAVTYVYFTNELKQMQDKYSKSGIACFLKEDDSYWDPNDEESMNSPCWQVKWQLRQLVRKMILRTSEETISTVQEKQQNISPLVRERGPQRVAAHITGTRGRSNTLSSPNSKNEKALGRKINSWESSRSGHSFLSNLHLRNGELVIHEKGFYYIYSQTYFRFQEEIKENTKNDKQMVQYIYKYTSYPDPILLMKSARNSCWSKDAEYGLYSIYQGGIFELKENDRIFVSVTNEHLIDMDHEASFFGAFLVG
- TRAIL-induced apoptosis, effect of MUC1 (HCT116/MUC1 cells): attenuated this response
- apoptosis (HCT116/vector cells, 100 ng/ml TRAIL without CHX): effective in inducing apoptosis
